Experiment: label from the status in PepcDB records

Sequence | protein production
MQTINATEIRNNFSYYIDTVVRDKPIAVKRNRDVLLFFSEQIIKDLLQDLKIHAELSKEDGIIIGTIDGFDLVVSGESEQEVIQKLAEDLLEYAQDYMNDFKLFYNAPNRKTHYPYILKVLLSSNIDEVKGYIYAEMV | not failed
MNRAREINYLNSIALHQPFGIVGVSGETGIGKTTVLNFVNPEGVFTVRVNISLRDSMESILYDLLHSLALSLEKVEEVSDLAKEVRKWITDEVSTIKGFSLGVSFGVNASLTHEKSIRPRFNFFKAREKLGELIKQTVQRKGKFLLIIDELDKEKKEDVLRVIDSIKNFIIMEDFVVILSLPFSIYREYAADRLRWNEAGNLENIFTDIVFVEPLKKLEIKELIIKRLGSYIELIEDGVLDIVADFSDGNPRDGLWILTKAIYDNIHKELLSKEDLINTINRTISEYTGLTLNLTENQKKAIRVLRGSVYSREKIIETLQKEGFKRTTAYSVMDQLLQKRILLVEKEGYRISGKFSYMEI | failed
MFSAKKRDKCIGEMSEKQLDLLVIGGGITGAGIALDAQVRGIQTGLVEMNDFASGTSSRSTKLVHGGLRYLKQFEIKLVAEVGKERAIVYENAPHVTTPEWMLLPIFKDGTFGKFSTSLGLKVYDYLADVRKDERRYMLNEKQTLEKEPLLRKENLKGGGIYVEYRTDDARLTLEIMKEAVARGAVALNYMKVESFIYDQGKVVGVVAKDRLTDTTHTIYAKKVVNAAGPWVDTLREKDRSKHGKYLKLSKGVHLVVDQSRFPLRQAVYFDTESDGRMIFAIPREGKTYIGTTDTFYDKDIASPRMTVEDRDYILAAANYMFPSLNLTADDVESSWAGLRPLIHEEGKKASEISRKDEIFFSDSGLISIAGGKLTGYRKMAERTVDAVAQGLNVNEPCTTAAIRLSGGLAEGAQGFPRFLDEASRKGAKLGFDADEVRRLAKLYGSNVDHVLNYAYEGKEEAEHYGLPALLLGQLQYGVEQEMVATPLDFFVRRTGALFFNISLVHQWKEAVLRWMAEEFSWTEEEKTRFQNELETELKMAVDPLFQVEPTTVLEHHHHHH | not failed
MMNKPAPRELEVIRSTYITPHMLRITLGGAGLAGFPADQESAYIKLLFPQAGERPLMRTYTIRQQRDDEIDVDFVLHDTDGPASSWAKTAQVGELIQIGGPGLKKLINFEADWFLLAGDMTALPAISVNLAKLPNNAVGYAVIEVLSEADIQPLVHPEHVELHWVINPEADPEGRPLVERIAQLPWLAGEPAVWIACEFNSMRALRRHFKQAHALPKSHFYTSSYWKIGCNEGEHKLVKQEDEQLENGASV | not failed
MNKQIDLPIADVQGSLDTRHIAIDRVGIKAIRHPVVVADKGGGSQHTVAQFNMYVNLPHNFKGTHMSRFVEILNSHEREISVESFEEILRSMVSRLESDSGHIEMAFPYFINKSAPVSGVKSLLDYEVTFIGEIKHGNQYSFTMKVIVPVTSLCPCSKKISDYGAHNQRSHVTISVRTNSFIWIEDIIRIAEEQASCELYGLLKRPDEKYVTERAYNNPKFVEDIVRDVAEVLNHDDRIDAYIVESENFESIHNHSAYALIERDKRIR | not failed
MSLSGVSHVSLTVRDLDISCRWYTEILDWKELVRGRGDTTSFAHGVLPGGLSIVLREHDGGGTDLFDETRPGLDHLSFSVESMTDLDVLEERLAKAGAAFTPTQELPFGWILAFRDADNIALEAMLGREGHHHHHH | not failed
MAVFVALGAFLMTLAGGWTAQRVTDRRHLVLGLAGGLMLGVVGMDLLPEALDAAGGKVFGVPAALLLFVAGFLLAHLVERLLAHRQAAHGGAESNGRAPEVGLTAAAAMVGHSAMDGVAIGAAFQVGGGMGLAVAVAVIAHDFADGFNTYTLTALYGNARRKAVIMLVADAVAPVLGAASTLAFTIPERLLGGYLALFGGALLYLAAAEILPEAHHEHPARSTLLCTVAGVGFIWLVVGLAG | failed
NLKDVYVSIADYEGDEETAGFQEGVSMEVLERNPNGWWYCQILDGVKPFKGWVPSNYLEKKN | not failed
MDMLHAMRTFTRVVECGSFAAAANALDISAAQVSRIVAELENQLQTRLLHRTTRRLRMSEAGERFLERARQIMLLTEEAVGEARGAHLTPRGHLRLHCPHGMGLLLMPLVAGYNMLYPEVVIELTLSQRNPDPLAEGHDVVITVDGALPDSQLIAVPLGNIFSIPCAAPGYLDTHGVPERPEDLHGHRCLRMAYPMYEGDWVFPQGVDQCVIAPNDSFSTNVADAMLVASELGMGIGLLPFYTASEAIGQGRLCRLLAPYRLRESALYAMYPSRHYLDAKVRTWIDYLKEQLPALFEGHARVVDDARYWR | failed
MTKHFLPRRTRKRRPEPLVKVRIDPPKLPKIRLLPRRAPRPRRPEPLVKVRIDPPRIRLPRIRRPRLTPFRERNPVVIGAVGLTFLALLTVAAFNADSLPLIGGGETYSAAFSEAGGLKPGDEVRIAGVKVGKVKDVDLDGDHVKVTFKIKGDPGFGTETGASIRVKTILGAKYLALRPKGPGQLKPGSEIPLKRTVPAYDVVQAFSDLTTTTEKVDTDQLAKALDTISTTFQDSPAEVRASIKGLSKISRTVASRDKALGELLDHANGVTGVLAEHSEDFTALVKDGGKLFKEISKRRKAIHKLLKSSAALGIELSGLVEDNDKEIGPALKGLNRVVQMLERNQSSLDRSVKLLAPYVRVFTNALGNGRWFDSYVQNLVAAPVVPRTGGAQ | failed
MAGTIAIKNGYVFDPLNEINGEKMDIFIRDGKVVKELSASEMKTSRVIDASGMTVMPGGVDSHSHVAGAKVNAGRSMRPEDHYKANLKKTPLTHSGSGYTVPSVYKQGYDYAAMGYTTVFEAAVPPLEARHTHEEMRATPLLDMGGYLVLGNNFFLMRYLRDGDMEKAAAYVAWMMKTHKTYGIKCVNPAGVENWAWGKNVSTLDETNIHFEITPREVIKGLTEVNETLGMPMPVHLHANNLGHPGCYAITKDSLKIPDGVKTKQNMAVEWAETKMDLSRDRSVYLTHLMFNSFAGTTWGDCESGVKDIADYINNKDHVVIDSGCTPFGEATVMTGDGPAIHDLYTLTGNKWSNTDVEMECGSGVLPFTYLKSNPVHSLQWAMGLECLLLIKDPWKTIMTTDSPNGGPFTKYPEVMTWIMSEAFRKQTFSECHKWANDRSELGGINRELSLYDLAILTRANPAKTIGMAHRKGSLGVGADGDVTVYNINPQQLDANNYEALLRTFRKAEYTVKGGEIVAVKGEIVSLPEKRTYYSEVHVENEREKEMLVDVKEWFRYYTLGFANYSTPEKYLANPTPIQVNSER | failed
MMGLKAHAMVLEKFNQPLVYKEFEISDIPRGSILVEILSAGVCGSDVHMFRGEDPRVPLPIILGHEGAGRVVEVNGEKRDLNGELLKPGDLIVWNRGITCGECYWCKVSKEPYLCPNRKVYGINRGCSEYPHLRGCYSSHIVLDPETDVLKVSEKDDLDVLAMAMCSGATAYHAFDEYPESFAGKTVVIQGAGPLGLFGVVIARSLGAENVIVIAGSPNRLKLAEEIGADLTLNRRETSVEERRKAIMDITHGRGADFILEATGDSRALLEGSELLRRGGFYSVAGVAVPQDPVPFKVYEWLVLKNATFKGIWVSDTSHFVKTVSITSRNYQLLSKLITHRLPLKEANKALELMESREALKVILYPEG | not failed
MQPLLRTAGFSLLLLAASCGVGAQPEPQNSRLTAIKMDGELPARAAIAGLFAELDFQQATQSYLWALPLVSYAQWQGEFRDKLHAGNGDLMVLESYEDKLGVITANATTPYILGFVDLNQTGPMVVELPPGPTAGGVGDFWQRAITDMGQTGPDQGKGGKYLVLPPGHPEPSDADQYYLAKSQTMNVLVGFRVLDPDPAKGKALVQQFKMYPYAQRATPPATRLLSPGGKPWSGTQPRGMAYWERLHQIIQQEPVNERDRFYMAMLASLGIEKDKPFNPNEHQRQALEQGARMGELIAQANTFAKRFADAQYWPDRQWDKVLNIADPSQRVAYYDQLWERSAWFYEAVTNTKGMVSKTPGLGQTYLGAYTDHNGQWLDGGKHYRLHLGSNPPARQFWSLTVYDSASRCLIDNPQRKADLSSRQDLKKNPDGSLDLYFGPSAPKGLESNWVQTLPGKHWFSYFRLYAPTEAYFDKRWKLDDITLVQ | failed
